Several values for one entry are separate records, joined by “and”; a condition that tells them apart may be missing. Equal values may be shown once.

What all share (format): cell-based, human
In data set [1] the test system is DUX4 ORF (RenLuc-DUX4 ORF). The experiment in a line: Dual-luciferase assay, RenLuc-DUX4 ORF reporter co-transfected with miDUX4 plasmids in HEK293 cells. Set-up: increase in relative Renilla luciferase activity compared to original miDUX4 counterpart: concentration or dose not given beside the values. Conditions: for increase in relative Renilla luciferase activity compared to original miDUX4 counterpart: miDUX4 with mi405F flanking sequences. The method, then:
Dual Luciferase Assay. (See also FIGS. 1A, 3A-B, 4A-B, 5B, and 16B-C.) This assay was performed as previously described by Wallace et al. (Mol. Ther. Methods Clin. Dev. 8: 121-30 (2018)) and following the dual-luciferase reporter assay system (Promega) protocol with some modifications. All plasmid constructs had the psiCheck2 dual luciferase reporter plasmid (Promega) as backbone that contains separate Renilla and Firefly luciferase genes, where the former contains the various target sequences used in the experiments of the disclosure, and the latter serves as a transfection normalizer (control). All DUX4 and control sequences were cloned downstream of the Renilla luciferase stop codon, serving as a 3′UTR. HEK293 cells were pre-plated 24h before transfection. Cells were then co-transfected with the luciferase DUX4 reporter and individual microRNA expression plasmids in an increasing luciferase DUX4 reporter:miRNA molar ratio using Lipofectamine 2000 (Invitrogen). Luciferase activity was measured 24h or 48h after transfection. DUX4 gene silencing was determined as previously described [Wallace et al., Mol. Ther. Methods Clin. Dev. 8: 121-30 (2018)]. Triplicate data were averaged per experiment, and individual experiments were performed 3 times. Results were reported as the average ratio of Renilla to Firefly luciferase activity±SEM for all combined experiments.
Accordingly, two new mi405 constructs, i.e., mi405F and mi405NF, were designed. […] To assess the inhibition efficiency of the three mi405 constructs, a dual-luciferase assay and western blot analysis, similar to what was described for mir-675, were carried out. In the dual-luciferase assay, U6.mi405, U6.mi405F, or U6.mi405NF was co-transfected into HEK293 cells along with the RenLuc-DUX4 ORF (a construct expressing the open reading frame of DUX4 as a 3′UTR sequence of Renilla Luciferase). 24 h after transfection, U6.mi405, U6.mi405F, and U6.mi405NF reduced the relative Renilla luciferase activity by 85±1%, 89±1%, and 66±1% (P<0.0001, ANOVA, N=3), respectively, when tested against the RenLuc-DUX4 ORF construct.

Data set [2] deals with DUX4 protein. Description: Western blot of V5-tagged DUX4 protein in co-transfected HEK293 cells. Conditions: HEK293; for Average inhibition efficiency (%) of DUX4 protein levels: CMV.DUX4-FL/CMV.eGFP, molar ratio 1 to 3, eGFP normalizer, relative to U6-milacZ, N = 3-8. The method, then:
Western Blots. […] 50 mM Tris (pH 7.5-8.0), 150 mM NaCl, 0.1% (v/v) SDS, 0.5% (v/v) deoxycholate, 1% (v/v) triton X-100 (Fisher Scientific) and 1 tablet of protease inhibitor (ThermoFisher Scientific) per 10 mL of buffer. The total protein extract was quantified using the DC Protein Assay (Bio-Rad). Twenty microgram samples were separated on 12% SDS-PAGE, transferred to nitrocellulose membrane, using the wet transfer system, and incubated with the following antibodies: mouse monoclonal antibody to V5 (horseradish peroxidase [HRP]-coupled) [1:5,000 in 5% milk TBST buffer (150 mM NaCl, 50 mM Tris-HCl pH 7.4 and 0.1% Tween 20 (Fisher Scientific)), R961-25; Invitrogen); rabbit polyclonal eGFP antibody (1:50,000 in 3% BSA PBS, ab290; Abcam); mouse monoclonal β-actin antibodies (1:60,000; Sigma, St Louis, MO); overnight at 4° C. When using the eGFP antibody, membranes were blocked 30 mins with 3% BSA PBS prior to blotting. eGFP-probed blots were washed five times, 5 min each with 0.5% Tween 20 (Fisher Scientific) in TBST buffer, and then incubated with HRP-coupled goat anti-rabbit secondary antibody (1:250,000 in 3% BSA PBS, 115-035-144; Jackson ImmunoResearch) for 2 hours at room temperature. V5-probed blots were washed five times, 5 min each with 0.1% Tween 20 in TBST buffer. Following washes, blots were developed using Immobilon Western HRP substrate (Millipore) and exposed to film. DUX4.V5, and eGFP quantification was assessed using ImageJ.

Data set [3] deals with mir-675-5p. The experiment in a line: Small-transcript northern blot of mir-675 processing in HEK293 cells. The following applies: HEK293; anti-mir-675-5p biotinylated probe. The source says: Small-Transcript Northern Blots. […] (SEQ ID NO: 148)).

B1: mi1311F: miDUX4 cloned with mi405F flanking sequences (nucleic acid)
DNA: GCTCGAGTGAGCGAGCGGAGAACTGCCATTCTTTCCTGTAAAGCCACAGATGGGGAAAGAATGGCAGTTCTCCGCGTGCCTACTAGTAATTCTTCGATTCTGC
modifications: expressed or natural sequence
Turning to B1, the “increase in relative Renilla luciferase activity compared to original miDUX4 counterpart” value in data set [1] (normalized to miGFP) is reported as 27±9%.

B2: U6.mir-675-2.2: mir-675 construct with flanks as U6.mir-675-2.1, different promoter (nucleic acid)
DNA: GAACGCTGACGTCATCAACCCGCTCCAAGGAATCGCGGGCCCAGTGTCACTAGGCGGGAACACCCAGCGCGCGTGCGCCCTGGCAGGAAGATGGCTGTGAGGGACAGGGGAGTGGCGCCCTGCAATATTTGCATGTCGCTATGTGTTCTGGGAAATCACCATAAACGTGAAATGTCTTTGGATTTGGGAATCTTATAAGTTCTGTATGAGACCACTTGGATCCCCCAGGGTCTGGTGCGGAGAGGGCCCACAGTGGACTTGGTGACGCTGTATGCCCTCACCGCTCAGCCCCTGGGGTAACTCCTAATCACACTTTTTT
For the molecule B2, the “Average inhibition efficiency (%) of DUX4 protein levels” value (from here on “Average inhibition efficiency (%)”) in data set [2] was 58 ± 6 (N = 5) %. Also, the “mature mir-675-5p bands on northern blot” value in data set [3] was “detectable mir-675 mature sequences”.

B3: mi185F: miDUX4 cloned with mi405F flanking sequences (nucleic acid)
DNA: GCTCGAGTGAGCGAGGTCCAGATTTGGTTTCAGAACTGTAAAGCCACAGATGGGTTCTGAAACCAAATCTGGACCCTGCCTACTAGTAATTCTTCGATTCTGC
modifications: expressed or natural sequence
Take B3: the “increase in relative Renilla luciferase activity compared to original miDUX4 counterpart” value in data set [1] (normalized to miGFP) is 160±8%.

B4: mi1156F: miDUX4 cloned with mi405F flanking sequences (nucleic acid)
DNA: GCTCGAGTGAGCGAAGGCGCAACCTCTCCTAGAAACTGAAAGCCACAGATGGGTTTCTAGGAGAGGTTGCGCCTGTGCCTACTAGTAATTCTTCGATTCTGC
modifications: expressed or natural sequence
As to B4, in data set [1] (normalized to miGFP), the “increase in relative Renilla luciferase activity compared to original miDUX4 counterpart” value stood at 34±8%.

B5: U6.mi405NF: mi405 with one G at 5' end and no 3' flanking sequence (nucleic acid)
DNA: ACGCCGCCATCTCTAGGCCCGCGCCGGCCCCCTCGCACAGACTTGTGGGAGAAGCTCGGCTACTCCCCTGCCCCGGTTAATTTGCATATAATATTTCCTAGTAACTATAGAGGCTTAATGTGCGATAAAAGACAGATAATCTGTTCTTTTTAATACTAGCTACATTTTACATGATAGGCTTGGATTTCTATAAGAGATACAAATACTAAATTATTATTTTAAAAAACAGCACAAAAGGAAACTCACCCTAACTGTAAAGTAATTGTGTGTTTTGAGACTATAAATATCCCTTGGAGAAAAGCCTTGTTTGCTCGAGTGAGCGATCCAGGATTCAGATCTGGTTTCTGTAAAGCCACAGATGGGAAACCAGATCTGAATCCTGGACTGCCTACTAGATTTTTT
With B5, in data set [2] (1:4 DUX4:mi405 molar ratio, 24 h, normalized to miGFP, N=2), the “reduction of DUX4 protein levels” value stood at 70±13%. The “reduction of relative Renilla luciferase activity” value in data set [1] (1:4 DUX4:mi405 molar ratio, HEK293, 24 h, normalized to miGFP) amounted to 66±1%. The “reduction of Renilla luciferase activity” value in data set [1] (DUX4:mi405 molar ratio 2 to 1, HEK293, 24 h, normalized to U6.miGFP) is 4±2% and 3.6±1.8%. In addition, in data set [1] (DUX4:miDUX4 molar ratio 1:1), the “relative Renilla luciferase activity reached” value came to 88±3%. In data set [1] (switching from molar ratio 1:2 to 1:1 DUX4:miDUX4), the “increase in relative Renilla luciferase activity” value is 73±7%.

B6: mi186F: miDUX4 cloned with mi405F flanking sequences (nucleic acid)
DNA: GCTCGAGTGAGCGAGTCCAGATTTGGTTTCAGAATCTGTAAAGCCACAGATGGGATTCTGAAACCAAATCTGGACCTGCCTACTAGTAATTCTTCGATTCTGC
modifications: expressed or natural sequence
As for B6, the “increase in relative Renilla luciferase activity compared to original miDUX4 counterpart” value in data set [1] (normalized to miGFP) was 27±9%.

B7: U6-milacZ: negative control miRNA expression plasmid (nucleic acid)
DNA: ACGCCGCCATCTCTAGGCCCGCGCCGGCCCCCTCGCACAGACTTGTGGGAGAAGCTCGGCTACTCCCCTGCCCCGGTTAATTTGCATATAATATTTCCTAGTAACTATAGAGGCTTAATGTGCGATAAAAGACAGATAATCTGTTCTTTTTAATACTAGCTACATTTTACATGATAGGCTTGGATTTCTATAAGAGATACAAATACTAAATTATTATTTTAAAAAACAGCACAAAAGGAAACTCACCCTAACTGTAAAGTAATTGTGTGTTTTGAGACTATAAATATCCCTTGGAGAAAAGCCTTGTTTGCGTTTAGTGAACCGTCAGATGGTACCGTTTAAACTCGAGTGAGCGACATGTTGCCACTCGCTTTAATCTGTAAAGCCACAGATGGGATTAAAGCGAGTGGCAACATGGCGCCTACTAGAGCGGCCGCCACAGCGGGGAGATCCAGACATGATAAGATACATTTTTT
Regarding B7, the “Average inhibition efficiency (%)” value in data set [2] is on record as 0 ± 2 (N = 8) %.

B8: mi599F: miDUX4 cloned with mi405F flanking sequences (nucleic acid)
DNA: GCTCGAGTGAGCAGAGGCTCTCCCACAGGGGGCTTTCTGAAAGCCACAGATGGGAAAGCCCCCTGTGGGAGAGCCCTGCCTACTAGTAATTCTTCGATTCTGC
modifications: expressed or natural sequence
For B8, in data set [1] (normalized to miGFP), the “increase in relative Renilla luciferase activity compared to original miDUX4 counterpart” value was 24±9%.

B9: mi318F: miDUX4 cloned with mi405F flanking sequences (nucleic acid)
DNA: GCTCGAGTGAGCGAGCCCTGCTCCTCCGAGCCTTTCTGAAAGCCACAGATGGGAAAGGCTCGGAGGAGCAGGGCGTGCCACTAGTAATTCTTCGATTCTGC
modifications: expressed or natural sequence
Take B9: in data set [1] (normalized to miGFP), the “increase in relative Renilla luciferase activity compared to original miDUX4 counterpart” value stood at 44±15%.

B10: U6-mir-675-2.6: mir-675 construct with modified 5' and 3' flanking sequences (nucleic acid)
DNA: TCTAGAGATCCGACGCCGCCATCTCTAGGCCCGCGCCGGCCCCCTCGCACAGACTTGTGGGAGAAGCTCGGCTACTCCCCTGCCCCGGTTAATTTGCATATAATATTTCCTAGTAACTATAGAGGCTTAATGTGCGATAAAAGACAGATAATCTGTTCTTTTTAATACTAGCTACATTTTACATGATAGGCTTGGATTTCTATAAGAGATACAAATACTAAATTATTATTTTAAAAAACAGCACAAAAGGAAACTCACCCTAACTGTAAAGTAATTGTGTGTTTTGAGACTATAAATATCCCTTGGAGAAAAGCCTTGTTAACGCGCCCCAGGGTCTGGTGCGGAGAGGGCCCACAGTGGACTTGGTGACGCTGTATGCCCTCACCGCTCAGCCCCTGGGGTAACTCCTAATCACACTTTTTT
For the molecule B10, in data set [2], the “Average inhibition efficiency (%)” value is reported as 63 ± 2 (N = 5) %.

B11: U6-mir-675-2.4: mir-675 construct with flanks as U6.mir-675-2.3, different promoter (nucleic acid)
DNA: GAACGCTGACGTCATCAACCCGCTCCAAGGAATCGCGGGCCCAGTGTCACTAGGCGGGAACACCCAGCGCGCGTGCGCCCTGGCAGGAAGATGGCTGTGAGGGACAGGGGAGTGGCGCCCTGCAATATTTGCATGTCGCTATGTGTTCTGGGAAATCACCATAAACGTGAAATGTCTTTGGATTTGGGAATCTTATAAGTTCTGTATGAGACCACTTGGATCCAATCACACTGCCCCAGGGTCTGGTGCGGAGAGGGCCCACAGTGGACTTGGTGACGCTGTATGCCCTCACCGCTCAGCCCCTGGGGATACTCCTAATCACACTTTTTT
On to B11, for which the “Average inhibition efficiency (%)” value in data set [2] was 63 ± 7 (N = 5) %.

The values are drawn from patent publication US20240093191A1, “COMPOSITIONS AND METHODS FOR TREATING DISEASE ASSOCIATED WITH DUX4 OVEREXPRESSION” (RESEARCH INSTITUTE AT NATIONWIDE CHILDREN'S HOSPITAL, priority 2021, published 2024).
